Data reported in the nanobody polyreactivity screen of Harvey et al. (2022).

Assay: yeast display, Sf9 membrane polyspecificity reagent, FACS + sequencing; frameworks hold sequencing errors
Procedure, shortened: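 Nanobodies came from a synthetic yeast display library in Saccharomyces cerevisiae BJ5465, induced with galactose for 36–48 hours and stained for 1 hour at 4 °C with 10% biotinylated, detergent-solubilized Sf9 membrane reagent. Cells were enriched on streptavidin microbeads and then FACS-sorted, with low and high (top ~1%) gates set on anti-HA fluorescence for expression and streptavidin fluorescence for reagent binding. Each polyreactivity label reflects the gate a clone came from. Genes were amplified by colony PCR, sequenced by MiSeq 2 × 250 and filtered by CDR length.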

| Sequence | polyreactivity (PSR sort gate) |
| --- | --- |
| QVQLVESGGCLVQAGGSLRLSCAASGYIFDHYAMGCYRQAPGKERELVAAISRSAGSTYYADSVKGRFTISRDNAKNTVYLQMNSLKPEDTAVYYCNAVVAVRSWRKYEYWGQGTQVTVSS | high polyreactivity |
| QVQLVESGGCLVQAGGSLRLSCAASGYTFRYNAMGWYRQAHGKERELVATITRGGSTNYADSVKGRFTISRDNEKNTVYLLMYSLKPEDPAVYYCNKEAAPLGFVPSYYGRDYWRQGTQVTVSS | low polyreactivity |
| QVQLVESGGCLVQAGGSLRLSCAATGRTFHGYAMGWYRQAPGKERELVAAITSSGARTYYADSVKGRFTISRDNAKNTVYLQMNSLKPEDTAVYYCAKRGKQYRKMNYWGQGTQVTVSS | high polyreactivity |
| QVQLVESGGCLVQAGGSLRLSCAPSGSTFIPNPMGWYRQEPGKERELVAAISRRGGSTNYADSVKGRFTISRDNAKNTVFLQMNSVKPEDTAVYYCAAVSPRRYRYDYWGQGPQVTVSS | low polyreactivity |
| QVQLVESGGCLVQAGGSLRLSCASSGIIIRKYAMGWYRQQPGKERELVAAITTRGSRTYYADSVKGRFTISRDNAKNTVYLQMNSLKPEDTAVYYCASDRYTVRMDYWGQGTQVTVSS | high polyreactivity |
| QVQLVESGGCLVQAGGSLRLSCSSSGFIFFYNMGWYRQAPGKERDLVADISTGGSTNYADSVKGRFTISRDNAKNTVYLQMNSLKQEDTAVYYCAAVYYNVYQYEPWYDYWGQGTQVTVSS | low polyreactivity |
| QVQLVESGGCLVQAGGSLRLSSAASGSIFHAYAMGWYRQSPGKESELVAAITIDGSTNYADSVKGRFTISRDNAKNTVYLQMNSLKPEDTAVYYCNKDGAYDAYSYDYWGQGTQVTVSS | low polyreactivity |
| QVQLVESGGCLVQAGGSRRLSCDASVRIVPVYAMGWYRQAHGNERELVAAISQSGGSTYADSVKGRFTISRDNAKNTVYLQMNSLKPEDTAVYYCAARYWKWRPAYEYWGPGTQVTVSS | high polyreactivity |
| QVQLVESGGCLVQAGGTLRLSCAASGSILNSYALGWYRQAPGKERELVAAIDNRGGSTHYADSVKGRFTISRDNAKNTVYLQMNSLKPEDTAVYYCAKRFYGSVGYWRYYYWGQGTQVTVSS | low polyreactivity |
| QVQLVESGGCLVQAGVSLRLSCAASGSIFSPYAMGWYRQAPGKEREFVASITFNGGSTYYADSVKGRFTISRDNAKNTVYLQMNSLKPEDTAVYYCAASYWYDTYWLMDYWGQGPQVTVSS | high polyreactivity |
| QVQLVESGGCLVQARGSLRLSCAASGSTFGTYAMGWYRQPPGKERELVAAIRWSGVSTYYADSVKGRFTISRDNAKNTVYLEMNSLKPEDTAVYYCAVALWVRGTYIYEYWGQGSQVTVSS | high polyreactivity |
| QVQLVESGGCLVQARGSLRLSCAASGSTFTYNTMGWYRQAPGKESELVAGITKSGGSTYYADSVKGRFTISRDKAKNTVYLQMNSLKPEDTAVYYCATSTSRRYGSRHNYWGQGTQVTVSS | high polyreactivity |
| QVQLVESGGCLVQEGGSLRLSCAASGSIFHDYIMGWYRQAPGKEMELVAAMSSGGSTYYADSVKGRFTISRDNAKNTVYLQMNSLKPEDTEVYYCAAKSRSQVYPHYYWGQGTQVTVSS | low polyreactivity |
| QVQLVESGGCLVQEGGSLRLSCDASGRTFLTYAMGWYRQAPGKERELVAAITDGDSTNYADSVKGRFTISRDNAKNNVYLQMNSLKPEDTAVYYCNADSLAYRYYYWGQGTQVTVSS | high polyreactivity |
| QVQLVESGGCLVQSGGSLRLSCAASGIILYYYAMGWYRQAPGKERELVAAISSGGNTYYADSVKGRFTISRDNAKNTVYLQMNSLKPEDPAVYFCASGTVIGGEYDYWGQGTQVTVSS | low polyreactivity |
| QVQLVESGGDLVQAGGSLRLSCAASGFTLTNYAMGWYRQATGKARELVAAITSSGGSTYYADSVKGRFTISRDNAKNTVYFQMNSLKPEDTAVYYCAAQGSRHFRWRYDYWGQGTQVTVSS | high polyreactivity |
| QVQLVESGGGFDQAGGSLRLSCAACGSIFWSNAMGWYRQAPGKERELVAAISSGGSTYADSVKGRLTISRDNAKNTVYLQMNSLKPEDNAVYYCNADVLYGDCYRGGYWGQGTQVTVSS | low polyreactivity |
| QVQLVESGGGFVHAGGSLRLSCAASGLIFGKYAMGWYRQAPGKERELVAAITSSGGGTYYADSVKGRFTISRDNAKNTVSLQMNSVKADDTAVYYCATGPDPKYDYRGQGTQVTVSS | high polyreactivity |
| QVQLVESGGGFVQAGGSHRLSCASSGRTFVLYTMGLYRQAPGKERELVAVGSTYYADSVKGRFTISRDNAKNTVYLQMNSLKPEDTALYYCNKPGNYLWRRSWDFYYWGQGTQVTVST | high polyreactivity |
| QVQLVESGGGFVQAGGSLRLICAAYRSIFSLYAMGWYRQAPGKERELVAHISSDGSTNYADSVKGRFTISRDNAKNTVYLQMNSLKPEDTAVYYCAKKPSSARYFTIGFDYWGQGTQVTVSS | low polyreactivity |
| QVQLVESGGGFVQAGGSLRLSCAASGFTFVGYAMGWYRQAPGKERELVAAITRRGGSTYYADSVKGRFTISRDNAKNTVYLQMNSLKPEDTAVYYCNKASYRISVPRYDYWGQGTQVTVSS | high polyreactivity |
| QVQLVESGGGFVQAGGSLRLSCAASGGIFGSYAIGWYRQAPGKERELVADITQSGGRTRNADSVKGRFTSSRDNAKNTVYLQKNSLKPEDTALYYCNAQDVDSGDDYDYWGQGTQVTVSS | low polyreactivity |

| Sequence | polyreactivity (PSR sort gate) |
| --- | --- |
| QVQLVESGGGFVQAGGSLRLSCAASGLIFGRYGLGWYRQAPGKAREFVAAITQSGGATYYADSVKGRFTISRDNAKNTVYLQMNSLKPEDTAVYYCNAPIAYWRVHDKYGYWGQGTQLTVSS | low polyreactivity |
| QVQLVESGGGFVQAGGSLRLSCAASGLTFYGYAMGWYRQEPGKERELVAAISGSGARTYYADSVKGRFTISRDNAKNTVYFQMNSLKPEDTAVYYCAVRGSWYSEHNYWGQGTQVTVSS | high polyreactivity |
| QVQLVESGGGFVQAGGSLRLSCAASGRIFRYYAMGWSRQAPGKERELVAAINSGGSTKYADSVKGRFTISRDNAKNTVYFQMNSLNPEDTAVYYCNKDHAFSRYWYGGFDYWGQGTQVTVSS | high polyreactivity |
| QVQLVESGGGFVQAGGSLRLSCAASGRIRFYAMGWYRQAPGKERELVAAISSSGGSTYYADSVKGSFTISRDNAKNTVYLQMNSLKPEDTAVYYCAAAWYYLGTRAQLYDYWGQGTQVTVSS | low polyreactivity |
| QVQLVESGGGFVQAGGSLRLSCAASGRTFPRYAMGWYRQAPGKERELVAAITRGGGTNYADSVKGRFTISRDNAKNTVYLQMNSLKPEDTAVYYCNRALLYRGYKFDYWGQGTHVTVSS | high polyreactivity |
| QVQLVESGGGFVQAGGSLRLSCAASGRTFRWNAMGWYRQAPGKERELVAAISSGGSTYYADSVKGRFTISRDNAKNTVYLQMNSLKPEDTAVYYCAKTSFKYRWSYPVISMDYWGQATQVTVSS | high polyreactivity |
| QVQLVESGGGFVQAGGSLRLSCAASGSIFAYYVMGWYRPAPGTERELGAAITSVGSTNYADSVKGRFTISRDNAKNTVYLQMNSLKPQDTAVYYCADDQYQARYYYWGQGTQVTVSS | low polyreactivity |
| QVQLVESGGGFVQAGGSLRLSCAASGSIFKRYAMGWYRQAPGKEWELVARISRRGGTYYADSVKGRFTISRDNAKNTVYLQINSLKPDDTAVYYCNANVIFADNNDRDYWGQGTQVTVSS | low polyreactivity |
| QVQLVESGGGFVQAGGSLRLSCAASGSIFVTNAMGWYRQAPGKDRELVAAISVSGGSTYYADSVKGRFTISRDNAKNTVYLQMNSLKPEDTAVYYCNTVRSPPGHDYWGLGTQVTVSS | low polyreactivity |
| QVQLVESGGGFVQAGGSLRLSCAASGSTFHDNAMGWYRQAPGKERELVAGISISGVSTFYADSVKGRFTISRDYAKNTVYLQMNSLKPEDTAVYYCTADDVSAYQRFDYWGQGTQVTVSS | low polyreactivity |
| QVQLVESGGGFVQAGGSLRLSCAASGSTFYHNAMGWYRPAPGKERELVAAISSGGSTHYADSVKGRFTISRDNEKNTVYLQKNILKPEDTAVYYCAKARPGFLYDHWGQGTQVTVSS | high polyreactivity |
| QVQLVESGGGFVQAGGSLRLSCASSGRTFHYYAMGWYRQAPGKERELVAAISFDGGTTYYADSVKGRFTISRDNAKNTVYLHMNSPKPEDTAVYYCNALRYRDRVGYNYWGQGTQVTVSS | high polyreactivity |
| QVQLVESGGGFVQAGGSLRLSCVPSGRTYEPYAMGWYRQAPGKERELVAAIRWSGDRTYYADSVKGRFTISRDFAKITVYLHMISLKPEDTAVYYCAADYRARRWGMDYWGQGTQVTVSS | high polyreactivity |
| QVQLVESGGGFVQAGGSLRLSGAASGSIFYCNAMGWYRQAPGKDRELVAAISYSGGSTYYADSVKGRFTLSRDTAKNTVYLQMNSLKPEDTAVSDGAAGPITLRYLTIYYTFDYWGQGTQVTVSS | high polyreactivity |
| QVQLVESGGGFVQAGGSLSLSCAASGSTFIRYVMGWYRQAPGKERELVASITISVGSTYADSVKGRFTISRDNAKNTVYLQMNRMNPEDTAVYYCAASTLKDIYLWFRVDYWGQGTQVTVSS | low polyreactivity |
| QVQLVESGGGIGQAGGSLRLSCAASGFTFSRYTMAWFRRAPGKERELVAAINRRGGSTYYADSVKGRFTISRDNAKNTVYLQMNCEKPEDTAVYYCAATYTVRSGNGIANDYWGQGTQVTVSS | high polyreactivity |
| QVQLVESGGGILQAGGSLRLSCAASGSIFGGNAMGWYRQAPGKERELVAAITSTVSTNYADSVKGRFTISRDNAKNTVYLQMNSLKPEDTAVYYCANDTSNVEGDYWGQGTQVTVSS | low polyreactivity |
| QVQLVESGGGILQARGSRPLICAASGSNLSYNAMGWYRQAPGKEREFVATITGTGGSTRYADSVKGRFTFSRDNAKNTVYLQMNSLNPEDTAVYYCATAAWWYYRIYHEFGFLGQGTQVTVSS | high polyreactivity |
| QVQLVESGGGIVEAGVSLRISCAASGSIFTKNAMVWYRPAPGKARELVAAISSGGSTYYADSEKGRFSISRDNAKNTVYLQMNSLKPEDTAVYYCARGASFYLKFYYWGQGTQVTVSS | high polyreactivity |
| QVQLVESGGGIVQAGCSLRLSCAPSGSTFKNNAMGWDRQAPGKEREFVASIYKRGGSTYYADSVKGRFTISRDNAKNTVYLQKKSLTPEDTAVYYCAKTYWSYGWSHGDYGEVDYWGQGTQVNVSS | high polyreactivity |
| QVQLVESGGGIVQAGCSLRLSSAASGFTFYGYAMGWYRQAPGKERELVAAMSWDGSSTYYADSVKGRFTISRDNAKNTVYLPMNSLKPEDTAVYYCAREYYYGYYYPIQSDYWGQGTQVTVSS | low polyreactivity |
